B1: HDAC6 (parent)
chain: QYMNEGELRVLADTYDSVYLHPNS
B2: VAMP4 (parent)
chain: FLRGPSGPRFGPRNDKIKHVQNQV

Variants of: B1
Assay: protein stability index of a GFP-peptide fusion (GPS, HEK-293T) (PSI 1-6); higher = more stable
Conditions: c terminus: a fixed tail appended
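Also: lentivirally expressed fusions sorted by FACS into six bins by GFP to DsRed ratio, PSI derived from sequencing read proportions per bin multiplied by bin number.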

Which protein stability index does the source give for QYMNEGELRVLNDTYDSVYLHPNS [A12N] here?
Its protein stability index is 1.92.

For QYMNEGELRVLGDTYDSVYLHPNS [A12G], which protein stability index is on record?
The protein stability index was 1.68.

With QYMNEGELRVLADTYDSVILHPNS [Y19I] as the variant, how does the protein stability index read?
Its protein stability index is 1.79.

With QYMNEGELRVLADTYVSVYLHPNS [D16V] as the variant, how does the protein stability index read?
The protein stability index was 2.42.

Which protein stability index does the source give for QYMNEGELRVLADTYFSVYLHPNS [D16F] here?
The protein stability index was 3.19.

For QYMNEGELRVLADTYTSVYLHPNS [D16T], which protein stability index is on record?
The protein stability index was 1.8.

Which protein stability index does the source give for QYMNEGELRVIADTYDSVYLHPNS [L11I] here?
The protein stability index was 1.78.

With QYMNEGELRVDADTYDSVYLHPNS [L11D] as the variant, how does the protein stability index read?
Its protein stability index is 3.01.

Which protein stability index does the source give for QYMNEGELRVEADTYDSVYLHPNS [L11E] here?
Its protein stability index is 2.36.

With QYMNEGELRVYADTYDSVYLHPNS [L11Y] as the variant, how does the protein stability index read?
The protein stability index was 2.14.

With QYMNEGELRVTADTYDSVYLHPNS [L11T] as the variant, how does the protein stability index read?
The protein stability index was 2.

For QYMNEGELRVNADTYDSVYLHPNS [L11N], which protein stability index is on record?
Its protein stability index is 2.32.

Which protein stability index does the source give for QYMNEGELRVLADTYDSVYLHPNY [S24Y] here?
The protein stability index was 1.41.

With QYMNEGELRVLAETYDSVYLHPNS [D13E] as the variant, how does the protein stability index read?
Its protein stability index is 1.6.

With QYMNEGELRVLAKTYDSVYLHPNS [D13K] as the variant, how does the protein stability index read?
The protein stability index was 1.16.

Which protein stability index does the source give for QYMNEGEYRVLADTYDSVYLHPNS [L8Y] here?
Its protein stability index is 2.96.

For QYMNEGEVRVLADTYDSVYLHPNS [L8V], which protein stability index is on record?
The protein stability index was 3.68.

For QYMNEGEWRVLADTYDSVYLHPNS [L8W], which protein stability index is on record?
The protein stability index was 1.33.

Which protein stability index does the source give for QYMNEGEDRVLADTYDSVYLHPNS [L8D] here?
The protein stability index was 2.7.

Which protein stability index does the source give for QYMNEGELRVLADTYDSVYEHPNS [L20E] here?
Its protein stability index is 2.26.

Which protein stability index does the source give for QYMNEGELRVLADTYDSVYVHPNS [L20V] here?
Its protein stability index is 2.22.

With QYMNEQELRVLADTYDSVYLHPNS [G6Q] as the variant, how does the protein stability index read?
The protein stability index was 1.91.

With QYMNEWELRVLADTYDSVYLHPNS [G6W] as the variant, how does the protein stability index read?
The protein stability index was 1.88.

With QYMNEGELRVLADTYDSVYLCPNS [H21C] as the variant, how does the protein stability index read?
Its protein stability index is 3.56.

For QYMNEGELRVLADTYDSVYLQPNS [H21Q], which protein stability index is on record?
The protein stability index was 2.11.

With QYQNEGELRVLADTYDSVYLHPNS [M3Q] as the variant, how does the protein stability index read?
The protein stability index was 3.73.

Which protein stability index does the source give for QYNNEGELRVLADTYDSVYLHPNS [M3N] here?
The protein stability index was 3.41.

For QYMNEGELRVLADTYDSVYLHYNS [P22Y], which protein stability index is on record?
The protein stability index was 1.41.

With DYMNEGELRVLADTYDSVYLHPNS [Q1D] as the variant, how does the protein stability index read?
The protein stability index was 3.16.

For PYMNEGELRVLADTYDSVYLHPNS [Q1P], which protein stability index is on record?
Its protein stability index is 2.63.

With CYMNEGELRVLADTYDSVYLHPNS [Q1C] as the variant, how does the protein stability index read?
Its protein stability index is 1.52.

Which protein stability index does the source give for QYMNEGELRVLADTNDSVYLHPNS [Y15N] here?
Its protein stability index is 2.65.

With QYMNEGELQVLADTYDSVYLHPNS [R9Q] as the variant, how does the protein stability index read?
Its protein stability index is 2.65.

Which protein stability index does the source give for QYMNEGELAVLADTYDSVYLHPNS [R9A] here?
The protein stability index was 1.76.

With QYMNEGELGVLADTYDSVYLHPNS [R9G] as the variant, how does the protein stability index read?
The protein stability index was 2.18.

With QYMNEGELKVLADTYDSVYLHPNS [R9K] as the variant, how does the protein stability index read?
The protein stability index was 1.69.

With QYMNEGELNVLADTYDSVYLHPNS [R9N] as the variant, how does the protein stability index read?
Its protein stability index is 2.67.

With QYMNEGELTVLADTYDSVYLHPNS [R9T] as the variant, how does the protein stability index read?
Its protein stability index is 2.14.

Which protein stability index does the source give for QYMNHGELRVLADTYDSVYLHPNS [E5H] here?
The protein stability index was 2.91.

Which protein stability index does the source give for QYMNEGELRVLADCYDSVYLHPNS [T14C] here?
The protein stability index was 2.54.

For QYMNEGELRVLADRYDSVYLHPNS [T14R], which protein stability index is on record?
Its protein stability index is 2.51.

Which protein stability index does the source give for QYMNEGELRVLADAYDSVYLHPNS [T14A] here?
Its protein stability index is 2.1.

Which protein stability index does the source give for QRMNEGELRVLADTYDSVYLHPNS [Y2R] here?
The protein stability index was 3.3.

For QYMNEGDLRVLADTYDSVYLHPNS [E7D], which protein stability index is on record?
The protein stability index was 2.04.

Which protein stability index does the source give for QYMIEGELRVLADTYDSVYLHPNS [N4I] here?
The protein stability index was 2.49.

Which protein stability index does the source give for QYMREGELRVLADTYDSVYLHPNS [N4R] here?
The protein stability index was 2.97.

With QYMNEGELRVLADTYDSMYLHPNS [V18M] as the variant, how does the protein stability index read?
Its protein stability index is 2.25.

For QYMNEGELRVLADTYDSPYLHPNS [V18P], which protein stability index is on record?
The protein stability index was 1.92.

With QYMNEGELRVLADTYDSEYLHPNS [V18E] as the variant, how does the protein stability index read?
Its protein stability index is 3.18.

For QYMNEGELRVLADTYDSCYLHPNS [V18C], which protein stability index is on record?
Its protein stability index is 2.17.

Which protein stability index does the source give for QYMNEGELRVLADTYDSVYLHPRS [N23R] here?
Its protein stability index is 2.17.

Which protein stability index does the source give for QYMNEGELRVLADTYDSVYLHPPS [N23P] here?
The protein stability index was 1.57.

Which protein stability index does the source give for QYMNEGELRVLADTYDSVYLHPCS [N23C] here?
The protein stability index was 1.99.

Which protein stability index does the source give for QYMNEGELRVLADTYDSVYLHPFS [N23F] here?
The protein stability index was 1.96.

Variants of: B2
Assay: as above
Conditions: c terminus: a fixed tail appended

Which protein stability index does the source give for FLRGPSGPRFGPRNDRIKHVQNQV [K16R] here?
The protein stability index was 2.75.

With FLRGPSGPRFGPRNDIIKHVQNQV [K16I] as the variant, how does the protein stability index read?
Its protein stability index is 2.15.

With HLRGPSGPRFGPRNDKIKHVQNQV [F1H] as the variant, how does the protein stability index read?
The protein stability index was 3.22.

With QLRGPSGPRFGPRNDKIKHVQNQV [F1Q] as the variant, how does the protein stability index read?
The protein stability index was 3.68.

Which protein stability index does the source give for FLRGPSGPRFGPRTDKIKHVQNQV [N14T] here?
The protein stability index was 2.7.

With FLRGPSGPRFGPRKDKIKHVQNQV [N14K] as the variant, how does the protein stability index read?
Its protein stability index is 2.41.

For FLRGPSGPRFGPRYDKIKHVQNQV [N14Y], which protein stability index is on record?
Its protein stability index is 2.04.

For FLRGPSGPRFGQRNDKIKHVQNQV [P12Q], which protein stability index is on record?
Its protein stability index is 2.34.

For FLRGPSGPRFGIRNDKIKHVQNQV [P12I], which protein stability index is on record?
The protein stability index was 2.87.

For FLRGPSGPRFGRRNDKIKHVQNQV [P12R], which protein stability index is on record?
Its protein stability index is 2.59.

With FLRGPSGPRFGPRNDKIKHVFNQV [Q21F] as the variant, how does the protein stability index read?
The protein stability index was 2.42.

With FLRGPSGPRFFPRNDKIKHVQNQV [G11F] as the variant, how does the protein stability index read?
The protein stability index was 2.2.

With FLRGPSGPRFTPRNDKIKHVQNQV [G11T] as the variant, how does the protein stability index read?
The protein stability index was 2.18.

For FLRGYSGPRFGPRNDKIKHVQNQV [P5Y], which protein stability index is on record?
The protein stability index was 2.04.

For FLRGISGPRFGPRNDKIKHVQNQV [P5I], which protein stability index is on record?
Its protein stability index is 2.17.

For FLRGGSGPRFGPRNDKIKHVQNQV [P5G], which protein stability index is on record?
Its protein stability index is 2.43.

Which protein stability index does the source give for FLRGASGPRFGPRNDKIKHVQNQV [P5A] here?
The protein stability index was 2.79.

For FLRGPSFPRFGPRNDKIKHVQNQV [G7F], which protein stability index is on record?
The protein stability index was 1.85.

Which protein stability index does the source give for FLRGPSMPRFGPRNDKIKHVQNQV [G7M] here?
Its protein stability index is 2.24.

Which protein stability index does the source give for FLREPSGPRFGPRNDKIKHVQNQV [G4E] here?
The protein stability index was 3.17.

For FLIGPSGPRFGPRNDKIKHVQNQV [R3I], which protein stability index is on record?
The protein stability index was 2.24.

Which protein stability index does the source give for FLHGPSGPRFGPRNDKIKHVQNQV [R3H] here?
The protein stability index was 3.17.

With FLRGPRGPRFGPRNDKIKHVQNQV [S6R] as the variant, how does the protein stability index read?
Its protein stability index is 2.92.

For FLRGPMGPRFGPRNDKIKHVQNQV [S6M], which protein stability index is on record?
The protein stability index was 2.86.

For FLRGPYGPRFGPRNDKIKHVQNQV [S6Y], which protein stability index is on record?
Its protein stability index is 2.11.

Which protein stability index does the source give for FLRGPSGPRFGPKNDKIKHVQNQV [R13K] here?
The protein stability index was 2.58.

For FLRGPSGPRFGPLNDKIKHVQNQV [R13L], which protein stability index is on record?
Its protein stability index is 2.02.

Which protein stability index does the source give for FLRGPSGPMFGPRNDKIKHVQNQV [R9M] here?
Its protein stability index is 2.46.

Which protein stability index does the source give for FLRGPSGPIFGPRNDKIKHVQNQV [R9I] here?
Its protein stability index is 2.17.

For FLRGPSGPRFGPRNDKIKHVQFQV [N22F], which protein stability index is on record?
The protein stability index was 1.68.

For FLRGPSGSRFGPRNDKIKHVQNQV [P8S], which protein stability index is on record?
Its protein stability index is 2.58.

With FLRGPSGERFGPRNDKIKHVQNQV [P8E] as the variant, how does the protein stability index read?
Its protein stability index is 3.19.

For FLRGPSGPRFGPRNDKPKHVQNQV [I17P], which protein stability index is on record?
The protein stability index was 2.84.

Which protein stability index does the source give for FLRGPSGPRFGPRNDKIDHVQNQV [K18D] here?
Its protein stability index is 2.74.

For FLRGPSGPRFGPRNDKITHVQNQV [K18T], which protein stability index is on record?
The protein stability index was 2.47.

Which protein stability index does the source give for FLRGPSGPRFGPRNDKIQHVQNQV [K18Q] here?
The protein stability index was 3.34.

With FLRGPSGPRFGPRNDKIKHVQNQF [V24F] as the variant, how does the protein stability index read?
The protein stability index was 2.53.

Which protein stability index does the source give for FLRGPSGPRFGPRNDKIKHVQNQR [V24R] here?
Its protein stability index is 3.

With FVRGPSGPRFGPRNDKIKHVQNQV [L2V] as the variant, how does the protein stability index read?
The protein stability index was 1.48.

For FRRGPSGPRFGPRNDKIKHVQNQV [L2R], which protein stability index is on record?
The protein stability index was 3.43.
